Reference: publication PMC7094638 (Journal of Molecular Biology, 2007)
Like-named read-outs stand apart in the source and are kept apart here.

Key:
[1] = target: the molecule itself; test: cross-linking
[2] = target: SARS-CoV N protein NP45-365 (SARS-CoV, UniProt P59595 45-365); test: EMSA
[3] = target: SARS-CoV N protein NP281-365 (SARS-CoV, UniProt P59595 281-365); test: EMSA
[4] = target: SARS-CoV N protein NTD (NP45-181) (SARS-CoV, UniProt P59595 45-181); test: EMSA
[5] = target: T1, SARS-CoV N protein CTD (NP248-365) (SARS-CoV, UniProt P59595 248-365); test: EMSA
[6] = target: T1, SARS-CoV N protein CTD (NP248-365); test: EMSA; remark: listed apart in the source

Row | Binder | binding result [1] | binding result [2] | binding result [3] | binding result [4] | binding result [5] | binding result [6]
1 | SARS-CoV NP248-365 (C-terminal domain of the SARS-CoV nucleocapsid protein, residues 248-365) (domain or fragment) TKKSAAEASKKPRQKRTATKQYNVTQAFGRRGPEQTQGNFGDQDLIRQGTDYKHWPQIAQFAPSASAFFGMSRIGMEVTPSGTWLTYHGAIKLDDKDPQFKDNVILLNKHIDAYKTFP | binds |  |  |  |  | 
2 | CGAGGCCACGCGGAGUACGAUCGAGGGUACAG (ssRNA) [s2m 32-mer ssRNA] |  | binds | no binding | binds | binds | 
3 | CGAGGCCACGCGGAGTACGATCGAGGGTACAG (ssDNA) [32-mer ssDNA mimic of s2m] |  | binds | no binding | binds | binds | 
4 | 32-mer s2m dsDNA (dsDNA) DNA 1: CGAGGCCACGCGGAGTACGATCGAGGGTACAG DNA 2: CTGTACCCTCGATCGTACTCCGCGTGGCCTCG |  |  | no binding |  |  | binds
